# B1: Sodium/myo-inositol cotransporter 2 (Homo sapiens), Q8WWX8-3 (parent)
# chain: MVWWPVGASLFASNVGSGHFIGLAGSGAATGISVSAYELNGLFSVLMLAWIFLPIYIAGQVTTMPEYLRKRFGGIRIPIILAVLYLFIYIFTKISVDMYAGAIFIQQSLHLDLYLAIVGLLAITAVYTVAGGLAAVIYTDALQTLIMLIGALTLMGYSFAAVGGMEGLKEKYFLALASNRSENSSCGLPREDAFHIFRDPLTSDLPWPGVLFGMSIPSLWYWCTDQVIVQRTLAAKNLSHAKGGALMAAYLKVLPLFIMVFPGMVSRILFPDQVACADPEICQKICSNPSGCSDIAYPKLVLELLPTGLRGLMMAVMVAALMSSLTSIFNSASTIFTMDLWNHLRPRASEKELMIVGRVFVLLLVLVSILWIPVVQASQGGQLFIYIQSISSYLQPPVAVVFIMGCFWKRTNEKGAFWGLISGLLLGLVRLVLDFIYVQPRCDQPDERPVLVKSIHYLYFSMILSTVTLITVSTVSWFTEPPSKEMVSHLTWFTRHDPVVQKEQAPPAAPLSLTLSQNGMPEASSSSSVQFEMVQENTSKTHSCDMTPKQSKVVKAILWLCGIQEKGKEELPARAEAIIVSLEENPLVKTLLDVNLIFCVSCAIFIWGYFA
# B2: ATP synthase mitochondrial F1 complex assembly factor 2 (Homo sapiens), Q8N5M1 (parent)
# chain: MWRSCLRLRDGGRRLLNRPAGGPSASMSPGPTIPSPARAYAPPTERKRFYQNVSITQGEGGFEINLDHRKLKTPQAKLFTVPSEALAIAVATEWDSQQDTIKYYTMHLTTLCNTSLDNPTQRNKDQLIRAAVKFLDTDTICYRVEEPETLVELQRNEWDPIIEWAEKRYGVEISSSTSIMGPSIPAKTREVLVSHLASYNTWALQGIEFVAAQLKSMVLTLGLIDLRLTVEQAVLLSRLEEEYQIQKWGNIEWAHDYELQELRARTAAGTLFIHLCSESTTVKHKLLKE
# partner: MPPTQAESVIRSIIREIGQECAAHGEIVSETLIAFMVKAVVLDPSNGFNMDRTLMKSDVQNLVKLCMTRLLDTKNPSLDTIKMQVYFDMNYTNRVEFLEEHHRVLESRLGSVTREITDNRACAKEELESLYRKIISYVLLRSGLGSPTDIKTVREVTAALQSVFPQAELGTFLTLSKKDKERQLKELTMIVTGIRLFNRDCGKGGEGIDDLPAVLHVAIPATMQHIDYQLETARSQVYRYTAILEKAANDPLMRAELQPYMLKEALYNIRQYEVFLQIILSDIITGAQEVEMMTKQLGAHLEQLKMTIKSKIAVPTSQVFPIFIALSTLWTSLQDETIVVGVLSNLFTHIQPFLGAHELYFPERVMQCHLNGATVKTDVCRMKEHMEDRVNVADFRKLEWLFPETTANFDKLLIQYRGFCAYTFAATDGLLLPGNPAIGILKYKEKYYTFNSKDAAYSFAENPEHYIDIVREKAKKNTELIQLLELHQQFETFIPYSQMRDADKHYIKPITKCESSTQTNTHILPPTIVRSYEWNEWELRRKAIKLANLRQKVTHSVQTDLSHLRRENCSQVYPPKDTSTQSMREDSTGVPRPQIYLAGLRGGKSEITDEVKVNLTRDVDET
# B3: Adiponectin (Homo sapiens), Q15848 (parent)
# chain: MLLLGAVLLLLALPGHDQETTTQGPGVLLPLPKGACTGWMAGIPGHPGHNGAPGRDGRDGTPGEKGEKGDPGLIGPKGDIGETGVPGAEGPRGFPGIQGRKGEPGEGAYVYRSAFSVGLETYVTIPNMPIRFTKIFYNQQNHYDGSTGKFHCNIPGLYYFAYHITVYMKDVKVSLFKKDKAMLFTYDQYQENNVDQASGSVLLHLEVGDQVWLQVYGEGERNGLYADNDNDSTFTGFLLYHDTN
# B4: Low density lipoprotein receptor adapter protein 1 (Homo sapiens), Q5SW96 (parent)
# chain: MDALKSAGRALIRSPSLAKQSWGGGGRHRKLPENWTDTRETLLEGMLFSLKYLGMTLVEQPKGEELSAAAIKRIVATAKASGKKLQKVTLKVSPRGIILTDNLTNQLIENVSIYRISYCTADKMHDKVFAYIAQSQHNQSLECHAFLCTKRKMAQAVTLTVAQAFKVAFEFWQVSKEEKEKRDKASQEGGDVLGARQDCTPSLKSLVATGNLLDLEETAKAPLSTVSANTTNMDEVPRPQALSGSSVVWELDDGLDEAFSRLAQSRTNPQVLDTGLTAQDMHYAQCLSPVDWDKPDSSGTEQDDLFSF
# partner: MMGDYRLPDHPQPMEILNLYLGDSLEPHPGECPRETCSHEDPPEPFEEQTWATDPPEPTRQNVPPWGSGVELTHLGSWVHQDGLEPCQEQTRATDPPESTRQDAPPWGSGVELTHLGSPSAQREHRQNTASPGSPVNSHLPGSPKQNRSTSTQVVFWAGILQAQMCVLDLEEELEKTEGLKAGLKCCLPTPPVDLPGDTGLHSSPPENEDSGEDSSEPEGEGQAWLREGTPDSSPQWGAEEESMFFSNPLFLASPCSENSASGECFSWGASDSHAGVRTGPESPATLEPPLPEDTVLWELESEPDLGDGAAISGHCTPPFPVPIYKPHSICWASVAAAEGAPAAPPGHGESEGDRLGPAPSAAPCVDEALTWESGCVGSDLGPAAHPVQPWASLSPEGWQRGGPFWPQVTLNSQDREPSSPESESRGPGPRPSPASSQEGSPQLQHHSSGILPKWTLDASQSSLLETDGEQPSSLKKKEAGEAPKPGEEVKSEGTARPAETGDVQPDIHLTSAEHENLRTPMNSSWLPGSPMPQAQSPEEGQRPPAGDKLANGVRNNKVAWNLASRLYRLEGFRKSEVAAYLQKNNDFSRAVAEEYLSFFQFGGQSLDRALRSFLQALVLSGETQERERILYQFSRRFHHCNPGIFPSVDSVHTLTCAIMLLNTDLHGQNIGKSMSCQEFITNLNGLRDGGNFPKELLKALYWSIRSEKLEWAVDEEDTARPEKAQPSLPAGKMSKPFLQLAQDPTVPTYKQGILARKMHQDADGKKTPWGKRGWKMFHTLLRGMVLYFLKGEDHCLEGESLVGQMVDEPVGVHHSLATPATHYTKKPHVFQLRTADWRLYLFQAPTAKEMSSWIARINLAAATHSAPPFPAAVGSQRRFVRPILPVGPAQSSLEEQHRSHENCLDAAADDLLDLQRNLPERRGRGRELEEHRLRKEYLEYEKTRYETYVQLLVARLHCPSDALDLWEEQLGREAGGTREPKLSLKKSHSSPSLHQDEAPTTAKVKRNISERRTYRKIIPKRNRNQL
# B5: Carbonic anhydrase-related protein (Homo sapiens), P35219 (parent)
# chain: MADLSFIEDTVAFPEKEEDEEEEEEGVEWGYEEGVEWGLVFPDANGEYQSPINLNSREARYDPSLLDVRLSPNYVVCRDCEVTNDGHTIQVILKSKSVLSGGPLPQGHEFELYEVRFHWGRENQRGSEHTVNFKAFPMELHLIHWNSTLFGSIDEAVGKPHGIAIIALFVQIGKEHVGLKAVTEILQDIQYKGKSKTIPCFNPNTLLPDPLLRDYWVYEGSLTIPPCSEGVTWILFRYPLTISQLQIEEFRRLRTHVKGAELVEGCDGILGDNFRPTQPLSDRVIRAAFQ
# Variants of: B1
# Details: with ima4_human KPNA3, O00505
# ima4_human KPNA3, O00505, sequence (O00505 whole entry): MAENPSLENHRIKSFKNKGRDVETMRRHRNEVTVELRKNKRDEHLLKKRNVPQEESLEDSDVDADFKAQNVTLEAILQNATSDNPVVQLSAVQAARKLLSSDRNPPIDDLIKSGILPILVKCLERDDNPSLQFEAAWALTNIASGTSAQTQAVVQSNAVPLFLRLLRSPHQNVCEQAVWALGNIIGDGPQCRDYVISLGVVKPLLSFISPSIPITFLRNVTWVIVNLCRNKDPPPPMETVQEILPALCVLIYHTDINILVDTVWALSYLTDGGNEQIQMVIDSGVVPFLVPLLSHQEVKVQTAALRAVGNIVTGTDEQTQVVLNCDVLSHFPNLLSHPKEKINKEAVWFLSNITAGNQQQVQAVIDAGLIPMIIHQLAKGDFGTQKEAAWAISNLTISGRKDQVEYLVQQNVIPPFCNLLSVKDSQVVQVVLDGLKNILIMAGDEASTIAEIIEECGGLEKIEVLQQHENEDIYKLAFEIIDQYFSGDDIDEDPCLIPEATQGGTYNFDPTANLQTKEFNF
row,Variant,effect of a mutation on the interaction
1,V118A,with no effect

# Variants of: B2
# Details: with cf206_human CFAP206, Q8IYR0
row,Variant,effect of a mutation on the interaction
1,MWRSCLRLRDGGRRLLNRPAGGPSASMSPGPTIPSPARAYAPPTERKRFYQNVSITQGEGGFEINLDHRKLKTPQAKLFTVPSEALAIAVATERDSQQDTIKYYTMHLTTLCNTSLDNPTQRNKDQLIRAAVKFLDTDTICYRVEEPETLVELQRNEWDPIIEWAEKRYGVEISSSTSIMGPSIPAKTREVLVSHLASYNTWALQGIEFVAAQLKSMVLTLGLIDLRLTVEQAVLLSRLEEEYQIQKWGNIEWAHDYELQELRARTAAGTLFIHLCSESTTVKHKLLKE [W94R],disrupting interaction strength

# Variants of: B3
# Details: with bni3l_human BNIP3L
row,Variant,effect of a mutation on the interaction
1,Y111H,with no effect
2,I164T,with no effect

# Variants of: B3
# Details: with sgta_human SGTA
row,Variant,effect of a mutation on the interaction
1,Y111H,with no effect
2,I164T,with no effect

# Variants of: B4
# Details: with PSD4, Q8NDX1-2
row,Variant,effect of a mutation on the interaction
1,MDALKSAGRALIRSPSLAKQSWGGGGRHRKLPENWTDTRETLLEGMLFSLKYLGMTLVEQPKGEELSAAAIKRIVATAKASGKKLQKVTLKVSPRGIILTDNLTNQLIENVSIYRISYCTADKMHDKVFAYIAQSQHNQSLECHAFLCTKRKMAQAVTLTVAQAFKVAFEFWQVSKEEKEKRDKASQEGGDVLGARQDCTPSLKSLVATGNLLDLEETAKAPLSTVSANTTNMDEVPWPQALSGSSVVWELDDGLDEAFSRLAQSRTNPQVLDTGLTAQDMHYAQCLSPVDWDKPDSSGTEQDDLFSF [R238W],with no effect

# Variants of: B5
# Details: with int7_human INTS7, Q9NVH2
# int7_human INTS7, Q9NVH2, sequence (Q9NVH2 whole entry): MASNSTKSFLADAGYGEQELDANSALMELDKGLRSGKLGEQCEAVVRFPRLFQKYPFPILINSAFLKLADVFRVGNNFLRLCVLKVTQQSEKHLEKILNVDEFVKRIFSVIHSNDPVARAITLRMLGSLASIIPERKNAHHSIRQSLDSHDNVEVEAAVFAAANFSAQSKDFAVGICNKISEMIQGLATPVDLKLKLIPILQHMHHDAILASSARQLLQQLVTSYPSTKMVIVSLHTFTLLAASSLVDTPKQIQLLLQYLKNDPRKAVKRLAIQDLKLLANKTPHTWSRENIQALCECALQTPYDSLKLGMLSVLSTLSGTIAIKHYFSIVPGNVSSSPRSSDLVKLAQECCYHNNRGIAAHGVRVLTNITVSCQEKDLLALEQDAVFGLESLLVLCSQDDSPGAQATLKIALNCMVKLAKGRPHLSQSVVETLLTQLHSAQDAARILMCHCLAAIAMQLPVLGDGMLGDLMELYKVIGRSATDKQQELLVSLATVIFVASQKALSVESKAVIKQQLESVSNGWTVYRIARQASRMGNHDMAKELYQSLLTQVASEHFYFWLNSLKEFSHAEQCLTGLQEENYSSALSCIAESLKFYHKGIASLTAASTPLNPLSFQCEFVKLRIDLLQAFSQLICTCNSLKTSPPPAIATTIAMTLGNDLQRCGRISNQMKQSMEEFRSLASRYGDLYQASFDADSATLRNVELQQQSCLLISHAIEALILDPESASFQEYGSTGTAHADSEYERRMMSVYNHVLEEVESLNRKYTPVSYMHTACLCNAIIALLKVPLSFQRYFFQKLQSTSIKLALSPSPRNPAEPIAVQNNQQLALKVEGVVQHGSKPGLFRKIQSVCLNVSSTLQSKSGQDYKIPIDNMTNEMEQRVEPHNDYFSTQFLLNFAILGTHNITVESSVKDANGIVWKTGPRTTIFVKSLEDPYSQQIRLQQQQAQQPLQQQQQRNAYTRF
row,Variant,effect of a mutation on the interaction
1,MADLSFIEDTVAFPEKEEDEEEEEEGVEWGYEEGVEWGLVFPDANGEYQSPINLNSREARYDPSLLDVRLSPNYVVCRDCEVTNDGHTIQVILKSKSVLPGGPLPQGHEFELYEVRFHWGRENQRGSEHTVNFKAFPMELHLIHWNSTLFGSIDEAVGKPHGIAIIALFVQIGKEHVGLKAVTEILQDIQYKGKSKTIPCFNPNTLLPDPLLRDYWVYEGSLTIPPCSEGVTWILFRYPLTISQLQIEEFRRLRTHVKGAELVEGCDGILGDNFRPTQPLSDRVIRAAFQ [S100P],disrupting interaction strength

# Variants of: B5
# Details: with crx_human CRX
row,Variant,effect of a mutation on the interaction
1,MADLSFIEDTVAFPEKEEDEEEEEEGVEWGYEEGVEWGLVFPDANGEYQSPINLNSREARYDPSLLDVRLSPNYVVCRDCEVTNDGHTIQVILKSKSVLPGGPLPQGHEFELYEVRFHWGRENQRGSEHTVNFKAFPMELHLIHWNSTLFGSIDEAVGKPHGIAIIALFVQIGKEHVGLKAVTEILQDIQYKGKSKTIPCFNPNTLLPDPLLRDYWVYEGSLTIPPCSEGVTWILFRYPLTISQLQIEEFRRLRTHVKGAELVEGCDGILGDNFRPTQPLSDRVIRAAFQ [S100P],disrupting interaction strength
